Measured values taken from publication PMC7263513.

What was measured:
[1] = biological target: SARS-CoV-2 receptor binding domain (RBD) (Severe acute respiratory syndrome coronavirus 2 (2019-nCoV) (SARS-CoV-2).) (UniProt P0DTC2)
[2] = biological target: SARS-CoV-2 receptor binding domain (RBD) (SARS-CoV-2) (UniProt P0DTC2)

Row | Substance | IC50 of neutralisation of SARS-CoV-2 pseudovirus (293T (ACE2) cells) [1] [mg/L] | IC50 of neutralisation of SARS-CoV-2 pseudovirus (293T (ACE2) cells) [2] [mg/L]
1 | C002 (antibody) | 0.00888 | –
2 | C144 (antibody) | – | 0.00691
3 | C110 (antibody) | 0.0184 | –
4 | C104 (antibody) | 0.0233 | –
5 | C105 (antibody) | 0.0261 | –
